Key:
[1] = molecular target: gp70 env protein of amphotropic MLV (4070A envelope), on purified viral particles (amphotropic murine leukemia virus (4070A envelope)); assay: ELISA on plate-bound MLV, dilution factor 10, Exp122-Ana Plate 1
[2] = molecular target: gp70 env protein of amphotropic MLV (4070A envelope), on purified viral particles (amphotropic murine leukemia virus (4070A envelope)); assay: ELISA on plate-bound MLV, dilution factor 781250, Exp073-DTV Plate 2
[3] = molecular target: gp70 env protein of amphotropic MLV (4070A envelope), on purified viral particles (amphotropic murine leukemia virus (4070A envelope)); assay: ELISA on plate-bound MLV, dilution factor 250, inter-assay mean of six experiments
[4] = molecular target: gp70 env protein of amphotropic MLV (4070A envelope), on purified viral particles (amphotropic murine leukemia virus (4070A envelope)); assay: ELISA on plate-bound MLV, dilution factor 31250, Exp074-DTV Plate 2
[5] = molecular target: gp70 env protein of amphotropic MLV (4070A envelope), on purified viral particles (amphotropic murine leukemia virus (4070A envelope)); assay: ELISA on plate-bound MLV, dilution factor 781250, Exp125-Ana Plate 1
[6] = molecular target: gp70 env protein of amphotropic MLV (4070A envelope), on purified viral particles (amphotropic murine leukemia virus (4070A envelope)); assay: human anti-MLV ELISA on plate-bound MLV, anti-rat Ig HRP alone or conjugate cocktail
[7] = molecular target: gp70 env protein of amphotropic MLV (4070A envelope), on purified viral particles (amphotropic murine leukemia virus (4070A envelope)); assay: ELISA on plate-bound MLV, dilution factor 31250, Exp125-Ana Plate 1
[8] = molecular target: gp70 env protein of amphotropic MLV (4070A envelope), on purified viral particles (amphotropic murine leukemia virus (4070A envelope)); assay: ELISA on plate-bound MLV, dilution factor 250, Exp072-DTV Plate 1
[9] = molecular target: gp70 env protein of amphotropic MLV (4070A envelope), on purified viral particles (amphotropic murine leukemia virus (4070A envelope)); assay: ELISA on plate-bound MLV, dilution factor 1250, inter-assay mean of six experiments
[10] = molecular target: gp70 env protein of amphotropic MLV (4070A envelope), on purified viral particles (amphotropic murine leukemia virus (4070A envelope)); assay: ELISA on plate-bound MLV, dilution factor 250, Exp073-DTV Plate 2
[11] = molecular target: gp70 env protein of amphotropic MLV (4070A envelope), on purified viral particles (amphotropic murine leukemia virus (4070A envelope)); assay: ELISA on plate-bound MLV, dilution factor 156250, Exp072-DTV Plate 2
[12] = molecular target: gp70 env protein of amphotropic MLV (4070A envelope), on purified viral particles (amphotropic murine leukemia virus (4070A envelope)); assay: ELISA on plate-bound MLV, dilution factor 781250, Exp073-DTV Plate 1
[13] = molecular target: gp70 env protein of amphotropic MLV (4070A envelope), on purified viral particles (amphotropic murine leukemia virus (4070A envelope)); assay: ELISA on plate-bound MLV, dilution factor 6250, Exp072-DTV Plate 1
[14] = molecular target: gp70 env protein of amphotropic MLV (4070A envelope), on purified viral particles (amphotropic murine leukemia virus (4070A envelope)); assay: ELISA on plate-bound MLV, dilution factor 50, Exp074-DTV Plate 1
[15] = molecular target: gp70 env protein of amphotropic MLV (4070A envelope), on purified viral particles (amphotropic murine leukemia virus (4070A envelope)); assay: ELISA on plate-bound MLV, dilution factor 50, Exp121-Ana Plate 1
[16] = molecular target: gp70 env protein of amphotropic MLV (4070A envelope), on purified viral particles (amphotropic murine leukemia virus (4070A envelope)); assay: ELISA on plate-bound MLV, dilution factor 1250, Exp073-DTV Plate 2
[17] = molecular target: gp70 env protein of amphotropic MLV (4070A envelope), on purified viral particles (amphotropic murine leukemia virus (4070A envelope)); assay: ELISA on plate-bound MLV, dilution factor 10, Exp121-Ana Plate 1
[18] = molecular target: gp70 env protein of amphotropic MLV (4070A envelope), on purified viral particles (amphotropic murine leukemia virus (4070A envelope)); assay: ELISA on plate-bound MLV, dilution factor 50, Exp073-DTV Plate 1
[19] = molecular target: gp70 env protein of amphotropic MLV (4070A envelope), on purified viral particles (amphotropic murine leukemia virus (4070A envelope)); assay: ELISA on plate-bound MLV, dilution factor 1250, Exp074-DTV Plate 2
[20] = molecular target: gp70 env protein of amphotropic MLV (4070A envelope), on purified viral particles (amphotropic murine leukemia virus (4070A envelope)); assay: ELISA on plate-bound MLV, dilution factor 250, Exp125-Ana Plate 1
[21] = molecular target: gp70 env protein of amphotropic MLV (4070A envelope), on purified viral particles (amphotropic murine leukemia virus (4070A envelope)); assay: ELISA on plate-bound MLV, dilution factor 6250, Exp074-DTV Plate 1
[22] = molecular target: gp70 env protein of amphotropic MLV (4070A envelope), on purified viral particles (amphotropic murine leukemia virus (4070A envelope)); assay: ELISA on plate-bound MLV, dilution factor 250, Exp121-Ana Plate 1
[23] = molecular target: gp70 env protein of amphotropic MLV (4070A envelope), on purified viral particles (amphotropic murine leukemia virus (4070A envelope)); assay: ELISA on plate-bound MLV, dilution factor 1250, Exp072-DTV Plate 1
[24] = molecular target: gp70 env protein of amphotropic MLV (4070A envelope), on purified viral particles (amphotropic murine leukemia virus (4070A envelope)); assay: ELISA on plate-bound MLV, dilution factor 1250, Exp122-Ana Plate 2
[25] = molecular target: gp70 env protein of amphotropic MLV (4070A envelope), on purified viral particles (amphotropic murine leukemia virus (4070A envelope)); assay: ELISA on plate-bound MLV, dilution factor 6250, Exp121-Ana Plate 2
[26] = molecular target: gp70 env protein of amphotropic MLV (4070A envelope), on purified viral particles (amphotropic murine leukemia virus (4070A envelope)); assay: ELISA on plate-bound MLV, dilution factor 31250, Exp073-DTV Plate 2

Sequence of gp70 env protein of amphotropic MLV (4070A envelope), on purified viral particles (amphotropic murine leukemia virus (4070A envelope)) (P21995 whole entry): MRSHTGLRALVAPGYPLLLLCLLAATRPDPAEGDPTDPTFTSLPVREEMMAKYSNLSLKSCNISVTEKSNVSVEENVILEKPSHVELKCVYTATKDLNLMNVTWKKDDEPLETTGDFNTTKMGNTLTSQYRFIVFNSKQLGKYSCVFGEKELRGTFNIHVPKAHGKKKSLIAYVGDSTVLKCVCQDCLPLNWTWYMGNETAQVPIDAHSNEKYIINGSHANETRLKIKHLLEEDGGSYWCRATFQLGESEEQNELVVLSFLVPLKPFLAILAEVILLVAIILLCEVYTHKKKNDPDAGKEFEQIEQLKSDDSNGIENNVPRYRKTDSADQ

83A25 monoclonal antibody (rat IgG2a, anti-gp70)
Mean OD [1]: 2.17 OD
Mean OD [2]: 0.11 OD
Mean OD (inter-assay mean) [3]: 1.93 OD
Mean OD [4]: 0.25 OD
Mean OD [5]: 0.105 OD
titer (reciprocal dilution (1:x)) [6]: 312000
Mean OD [7]: 0.235 OD
Mean OD [8]: 1.7 OD
Mean OD (inter-assay mean) [9]: 1.53 OD
Mean OD [10]: 2.12 OD
Mean OD [11]: 0.119 OD
Mean OD [12]: 0.107 OD
Mean OD [13]: 0.558 OD
Mean OD [14]: 2.01 OD
Mean OD [15]: 2.43 OD
Mean OD [16]: 1.61 OD
Mean OD [17]: 2.65 OD
Mean OD [18]: 2.27 OD
Mean OD [19]: 1.39 OD
Mean OD [20]: 1.85 OD
Mean OD [21]: 0.636 OD
Mean OD [22]: 2.37 OD
Mean OD [23]: 1.3 OD
Mean OD [24]: 1.4 OD
Mean OD [25]: 0.758 OD
Mean OD [26]: 0.276 OD

From US20140178854A1
